T1: Rvs167 SH3 (RV167_YEAST), P39743
T1 chain: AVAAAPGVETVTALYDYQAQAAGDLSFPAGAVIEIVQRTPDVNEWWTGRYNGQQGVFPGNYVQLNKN

T2: Boi1 SH3 (BOI1_YEAST), P38041
T2 chain: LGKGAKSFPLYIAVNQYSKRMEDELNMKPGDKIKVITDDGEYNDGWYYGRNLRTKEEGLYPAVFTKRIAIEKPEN

T3: Yfr024 SH3 (LSB3_YEAST), P43603
T3 chain: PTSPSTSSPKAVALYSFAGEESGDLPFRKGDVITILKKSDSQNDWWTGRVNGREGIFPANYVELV

T4: Yhr016c SH3 (YSC84_YEAST), P32793
T4 chain: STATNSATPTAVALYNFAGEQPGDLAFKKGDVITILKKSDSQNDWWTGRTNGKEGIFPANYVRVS

T5: Boi2 SH3 (BOI2_YEAST), P39969
T5 chain: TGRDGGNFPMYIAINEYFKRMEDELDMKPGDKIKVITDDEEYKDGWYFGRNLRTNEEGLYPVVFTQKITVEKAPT


Tests used:
Test in all cases: SPOT array
[1] = molecular target: T1, Rvs167 SH3 (RV167_YEAST), P39743
[2] = molecular target: T2, Boi1 SH3 (BOI1_YEAST), P38041
[3] = molecular target: T3, Yfr024 SH3 (LSB3_YEAST), P43603
[4] = molecular target: T4, Yhr016c SH3 (YSC84_YEAST), P32793
[5] = molecular target: T5, Boi2 SH3 (BOI2_YEAST), P39969

normalised SPOT signal, Boehringer light units (BLU); mean over the file's lines of this peptide [1]	normalised SPOT signal, Boehringer light units (BLU); mean over the file's lines of this peptide [2]	normalised SPOT signal, Boehringer light units (BLU); mean over the file's lines of this peptide [3]	normalised SPOT signal, Boehringer light units (BLU); mean over the file's lines of this peptide [4]	normalised SPOT signal, Boehringer light units (BLU); mean over the file's lines of this peptide [5]	Binder
7.6	76.1	7.9	150	35.2	LDHPNIPWKLIISG [YJR117W 8-21]
31.1	143	3400	1620	31.6	KWEPSTPQRNGPIL [YCR102C 158-171]
27.4	46	1930	133	34.8	KTKPSIPPKKVELN [YPR171W 354-367]
30.7	81.4	111	77.1	6.5	LAPPLSPTKPSPLH [YDR425W 253-266]
17.8	101	280	192	53.9	KTVPQSPKKPLSLL [YOR058C 193-206]
57.7	112	220	229	183	KSFPPPPLKPGQKT [YBR108W 84-97]
25900	143	14400	29100	31.9	LDRPQLPPRQVVNA [YMR192W 159-172]
605	285	8630	1820	51.3	KRPPTAPQRKISLP [YPR171W 469-482]
89	423	3400	708	38.5	LDDPFTPPRWLHHI [YDR128W 52-65]
50.8	166	396	210	46	KSKPKVPAKNPELE [YNL106C 1157-1170]
156	117	253	320	122	KSSPWSPYKVEKVL [YBR156C 161-174]
12100	1140	25100	992	146	KSVPIPPRKNATLD [YJR113C 102-115]
242	151	342	187	47.6	KRTPKIPEKDVKSD [YDR026C 223-236]
65.7	551	2010	488	41.5	KYGPLPPSRASVGS [YLR143W 388-401]
2710	69.2	25400	31200	35.3	LSIPDLPLRIHNQT [YCR087W 13-26]
8.2	153	16700	236	71.3	KTKPTPPPKPSHLK [YNL020C 606-619]
51.1	1870	2430	603	43	KWEPSTPQRKGPIL [YLR460C 166-179]
5.9	48	538	344	12.9	LDYPKAPIKLTMKS [YIL161W 160-173]
1260	528	15700	3210	70.2	LARPPPPKRIRTDS [YKL139W 32-45]
48.2	146	20.9	266	66.7	KYDPDNPNKDKLGT [YBR235W 52-65]
30.9	310	222	172	15.7	KYDPEDPNRRKLAR [YPL093W 387-400]
27.7	50.1	61	68.6	52.1	LENPSTPDKTEEDW [YKL010C 724-737]
